Measured values published in the DeepSol protein solubility set.

Assay: soluble on expression in E. coli; label from the status in PepcDB or PDB records

Row | Sequence | soluble on expression in E. coli
1 | MGSDKIHHHHHHMGLPMWANGDWRGSLYARHAPSSGMLHDYGAVFGSVEGNTTFYSGPPKADTVAQWARQAPADFRFCFKLPAQLTHDKRLVGIEDDFRTFCDALAPLHDRLGPTMVQLPRDFGARELPALAAFLEKWPSDMPCAVEVRHSEFFHKGDAEQQLNRLLITLGVDRVMLDVRPLFATPAGDDARLIKAQSEKPKRPLHVISTGRMPIVRFIGHCDMEINERLFAPWCERLALWIKQGKTPFLFVHTPDNRQAPQLARRFHARLSRCVTLPPLGDFPGERQSALF | not soluble
2 | MLVAQHTVYFPDAFLTQMREAMPSTLSFDDFLAACQRPLRRSIRVNTLKTSVADFLRLTAPYGWTLTPIPWCEEGFWIERDDEDALPLGSTAEHLSGLFYIQEASSMLPVAALFADGNAPQRVMDVAAAPGSKTTQIAARMNNEGAILANEFSASRVKVLHANISRCGISNVALTHFDGRVFGAALPEMFDAILLDAPCSGEGVVRKDPDALKNWSPESNQEIAATQRELIDSAFHALRSGGTLVYSTCTLNREENESVCLWLKETYPDAVEFLPLGDLFPGANKALTEEGFLHVFPQIYDCEGFFVARLRKTQAIPALPTPKYKVGNFPFSPVKDREAAQIRQAAASVGLNWDGNLRLWQRDKEVWLFPVGIEALIGKVRFSRLGIKLAETHNKGYRWQHEAVIALASPDNENAFELTPQEAEEWYRGRDVYPQAAPVADDVLVTFQHQPIGLAKRIGSRLKNSYPRELVRDGKLFTSNA | soluble
3 | PVVLESKQRGPCAMSRLIVKNLPNGMKEERFRQLFAAFGTLTDCSLKFTKDGKFRKFGFIGFKSEEEAQKAQKHFNKSFIDTSRITVEFCKSFGDPAKPRAWSKHAQKPSQPKQPPKDSTTPEIKKDEKKKKVAGQLEKLKEDTEFQEFLSVHRRRAQAATWANDGLDAEPSKGKSKPASDYLNFDSDSGQESEEEGAGEDLEEEASLEPKAAVQKELSDMDYLKSKMVKAGSSSSSEEEESEDEAVHCDEGSEAEEEDSSATPVLQERDSRGAGQEQGMPAGKKRPPEARAETEKPANQKEPTTCHTVKLRGAPFNVTEKNVMEFLAPLKPVAIRIVRNAHGNKTGYIFVDFSNEEEVKQALKCNREYMGGRYIEVFREKNVPTTKGAPKNTTKSWQGRILGENEEEEDLAESGRLFVRNLPYTSTEEDLEKLFSKYGPLSELHYPIDSLTKKPKGFAFITFMFPEHAVKAYSEVDGQVFQGRMLHVLPSTIKKEASEDASALGSSSYKKKKEAQDKANSASSHNWNTLFMGPNAVADAIAQKYNATKSQVFDHETKGSVAVRVALGETQLVQEVRRFLIDNGVSLDSFSQAAAERSKTVILVKNLPAGTLAAELQETFGRFGSLGRVLLPEGGTTAIVEFLEPLEARKAFRHLAYSKFHHVPLYLEWAPVGVFSSAAPQKKKLQDTPSEPMEKDPAEPETVPDGETPEDENPTEEGADNSSAKMEEEEEEEEEEEESLPGCTLFIKNLNFDTTEEKLKEVFSKVGTVKSCSISKKKNKAGVLLSMGFGFVEYRKPEQAQKALKQLQGHVVDGHKLEVRISERATKPAVTLARKKQVPRKQTTSKILVRNIPFQAHSREIRELFSTFGELKTVRLPKKMTGTGTHRGFGFVDFLTKQDAKRAFNALCHSTHLYGRRLVLEWADSEVTLQALRRKTAAHFHEPPKKKRSVVLDEILEQLEGSDSDSEEQTLQL | soluble
4 | MKLAAKTFTPSTADLPFTDAGASEDSGMANKPGEPAFQLWLDVKKVVFPTTSEPSYVNLRLHNPTDKRITFKVRCTSAELFRVQPPIAFINAGATVNLVMWSANTHLQPEKKHYFAFYHKNASPSARQSPPLWKDGLKDAEGVRRIPVVFLPPSS | not soluble
5 | MNSDEVQLIKKTWEIPVATPTDSGAAILTQFFNRFPSNLEKFPFRDVPLEELSGNARFRAHAGRIIRVFDESIQVLGQDGDLEKLDEIWTKIAVSHIPRTVSKESYNQLKGVILDVLTAASSLDESQAATWAKLVDHVYGIIFKAIDDDGNAK | soluble
6 | MGSSHHHHHHMTLNQPEYFTKYENLHFHRDENGILEVRMHTNGSSLVFTGKTHREFPDAFYDISRDRDNRVVILTGSGDAWMAEIDFPSLGDVTNPREWDKTYWEGKKVLQNLLDIEVPVISAVNGAALLHSEYILTTDIILASENTVFQDMPHLNAGIVPGDGVHILWPLALGLYRGRYFLFTQEKLTAQQAYELNVVHEVLPQSKLMERAWEIARTLAKQPTLNLRYTRVALTQRLKRLVNEGIGYGLALEGITATDLRNN | soluble
7 | PRRGAVAHANSIVQQLVSEGADISHTRNMLRNAMNGDAVAFSRVEQNIFRQHFPNMPMHGISRDSELAIELRGALRRAVHQQAAS | soluble
8 | MVNVRGPVLEVDDPKSVETSHGTSQLAEVVIRPERGAASPTTVTLWGKWTETVEYLAVGMELLATDLDERTFDGDTQYSTTGESAVVVEPDFLVDVTDIRGWVQCPRMYYLNKLTGLPLKYPVLKGTVVHEVFGDLLRGRDLESSIESRVAEAALDIGLLGETADAVADDVRQNAAAIQGWLQQGRFGEDSWRSEQTLISERFGIKGRADAVRRGMPVELKTGKNLKRSPRFQDKVQAACYGLLLADDIADPPDTGTLLYTKNSALDRSEESGDLSPAKEFSIGPGFLKYVLRVRNEIAAAEYDMSVPTGFEADANCDYCFEQDTCMVVSGRLDQESKAGQLGEPLPEPERAYFERLYRAIEEERREVHAEYRKLWEQSAAERADDDRALVDLDPLGREPLDGGRWALSARRTSDAVSKIREGDRVLASDGHPTQGTAELATVRHLDDEIVVVADEPFELRRIDVYPSELGVDRQLTALHDAVLRGDPDRKDVLFGRREPSFVGDHRPIIDNNESQNEAVNRALAAEDFALIHGPPGTGKTYTLAQTVQALVARGDRVLLSAFTNRAVDNAIEALEAQGFTDVLRWGSESGVRDDMQSYRFDRTGDPRERAAALRDAQVVAATTAACGSRALKQQQFDVAVIDEAGQLTEPGTFLATNRADRFVLVGDHEQLPPVVRAENDLQTSLFEQLIDDYPDAAVMLDRQYRMSQRIQYFASREFYDGQLRPANAEVASQRLADLDGVDVSTLPSALRDAVSFVDPGLEHHHHHH | not soluble
9 | MSLTTSIPAPPAESIDQVLNLISKGSNGAAQQSKHPLRIVMGSVMISEIGALISGVLKSLNNNFTTQKVWEEDYLVRVMAHLGLFAHAVGSQVSANDLTQLLTLYVQRLSARGFTDLVPLYLSFIPDDSDAREYYSKFLSSITDPSERTKQLQLVRKLGIDSNGDEERMANVLRRTVERVMADTEAEYRPSGEVTVQDEDTDVTETDTKICQSVDWYFENNMYPDAVSASLTVIRRFLACGRLAALRHFVRGKDLKQLVKNYDVDLYTRSLAGLDDGAQVGDADKDEIIQYHLFVQGLELIQDWRKFLKDNQTNSLSAVFWKSKHLESLIEKVSSGIVGLIRDWFQELIATDGTKKEMYQQLRVLYVPYLVMELLDIYQQARMSNWLYVKKAFELVSLVADEDNNDLLTCFVNCGRLDELMVRSGNLAAVACERGIANIFSEGHHHHHH | soluble
10 | PHFRGPVRKSTSIDTGPTESPASLKRVASPAAKPAIPGEEFIAMYTYESSEQGDLTFQQGDVIVVTKKDGDWWTGTGGDKSGVFPSNYVRLKDSEGSGTAGKTGSLGKKPEIAQVIASYAATGPEQLTLAPGQLILIRKKNPGGWWEGELQARGKKRQIGWFPANYVKLLSPGTSKITPTELPKTAVQPAVCQVIGMYDYTAQNDDELAFSKGQIINVLNKEDPDWWKGEVSGQVGLFPSNYVKLTTDMDPSQQWCSDLHLLDMLTPTERKRQGYIHELIVTEENYVNDLQLVTEIFQKPLTESELLTEKEVAMIFVNWKELIMCNIKLLKALRVRKKMSGEKMPVKMIGDILSAQLPHMQPYIRFCSCQLNGAALIQQKTDEAPDFKEFVKRLAMDPRCKGMPLSSFILKPMQRVTRYPLIIKNILENTPENHPDHSHLKHALEKAEELCSQVNEGVREKENSDRLEWIQAHVQCEGLSEQLVFNSVTNCLGPRKFLHSGKLYKAKSNKELYGFLFNDFLLLTQITKPLGSSGTDKVFSPKSNLQYKMYKTPIFLNEVLVKLPTDPSGDEPIFHISHIDRVYTLRAESINERTAWVQKIKAASELYIETEKKKREKAYLVRSQRATGIGRLMVNVVEGIELKPCRSHGKSNPYCEVTMGSQCHITKTIQDTLNPKWNSNCQFFIRDLEQEVLCITVFERDQLSADDFLGRTEIRVADIKKDQGSKGPVTKCLLLHEVPTGEIVVRLDLQLFDEP | soluble
11 | MSLIREAQRSELPAILELWLESTTWGHPFIKANYWRDCIPLVRDAYLANAQNWVWEEDGKLLGFVSIMEGRFLAAMFVAPKAVRRGIGKALMQYVQQRHPHLMLEVYQKNQPAINFYQAQGFHIVDCAWQDETQLPTWIMSWPVVQTLEGGSHHHHHH | soluble
12 | MSLKARPTIAEVARRAGVSPATVSRVLNGTARVSPEKVRAVLQAVEELGYAPSPLAQGLATGRSYAVGILLSDFASPFFGPILEALTLELEATPYRPIAVPGHWSLVRELEALEFLKAHRVEALVLLGTALDGEALGELGIPVLAFGQRVEGPKAWSLCLDNQQAAYEATRYLIDRGHTRIVHISSHRGGMDVRDRLLGYRKAMREAGLEARVVYGDLEEEGGYRAAAEAFRRYPDTTAIFAANDQTAFGARLYLYEQGLRVPEDVSLVGFDDIALSAYQIPPLTTVRQPIQDIGIALGRALRAVLAGEVPTLPRLELRLVERASVREVREGHHHHHH | soluble
13 | SRPVGPLARRGCCSAPGTPEVPLTRERYPVQRLPFSTVSKQDLAAFERIVPGGVVTDPEALQAPNVDWLRTLRGCSKVLLRPRTSEEVSHILRHCHERNLAVNPQGGNTGMVGGSVPVFDEIILSTARMNRVLSFHSVSGILVCQAGCVLEELSRYVEERDFIMPLDLGAKGSCHIGGNVATNAGGLRFLRYGSLHGTVLGLEVVLADGTVLDCLTSLRKDNTGYDLKQLFIGSEGTLGIITTVSILCPPKPRAVNVAFLGCPGFAEVLQTFSTCKGMLGEILSAFEFMDAVCMQLVGRHLHLASPVQESPFYVLIETSGSNAGHDAEKLGHFLEHALGSGLVTDGTMATDQRKVKMLWALRERITEALSRDGYVYKYDLSLPVERLYDIVTDLRARLGPHAKHVVGYGHLGDGNLHLNVTAEAFSPSLLAALEPHVYEWTAGQQGSVSAEHGVGFRKRDVLGYSKPPGALQLMQQLKALLDPKGILNPYKTLPSQA | soluble
14 | VTDLAGTTRLLRAQGVTAPAGFRAAGVAAGIKASGALDLALVFNEGPDYAAAGVFTRNQVKAAPVLWTQQVLTTGRLRAVILNSGGANACTGPAGFADTHATAEAVAAALSDWGTETGAIEVAVCSTGLIGDRLPMDKLLAGVAHVVHEMHGGLVGGDEAAHAIMTTDNVPKQVALHHHDNWTVGGMAKGAGMLAPSLA | soluble
15 | MGSDKIHHHHHHMIKMRIKPLEEYRIGLRQSSGIVIENVDVISAFPSPTTILGIIGAMKNAKPSQLSGIDDLREAYTSLTGNNTLSGDCDSSDNPLIWGPLIKEKDNKIYTPLFFNKLILDPIEYVKTSLNENVKVQSESLVKEIGIQIRRMNQMNRGSRNTIHLFYQKFFGSNYELEYCINIDDLKKLVKENVVALGGENRYARVRIDNGNCNFGNGNYAILLQPLLFESDSEYFVRLDNVKGLGCIDEIYGVLVEKGNKIDFNNFKVKVVYYALGYGNERRPMLQALPPGTVIKVKETCNNAKALGLLSELGFGAIYRVDPGNR | not soluble
16 | MRICSDQPCIVLLTEKDVWIRVNGKEPISLKANHMALLNCENNIIDVSSLNNTLVAHISHDIIKDYLRFLNKDLSQIPVWQRSATPILTLPCLTPDVFRVAAQHSMMPAETESEKERTRALLFTVLSRFLDSKKFVSLMMYMLRNCVSDSVYQIIESDIHKDWNLSMVASCLCLSPSLLKKKLKSENTSYSQIITTCRMRYAVNELMMDGKNISQVSQSCGYNSTSYFISVFKDFYGMTPLHYVSQHRERTVA | soluble
17 | MTKAETSIGVFYVSEYGYSDRLAQAIINGITKTGVGVDVVDLGAAVDLQELRELVGRCTGLVIGMSPAASAASIQGALSTILGSVNEKQAVGIFETGGGDDEPIDPLLSKFRNLGLTTAFPAIRIKQTPTENTYKLCEEAGTDLGQWVTRDRSIKAMKSLGLEHHHHHH | soluble
